Tests used:
Assay in all cases: flow cytometry on 293T cells overexpressing EphA1-A8
[1] = molecular target: T1, EphA1 overexpressed on 293T cells (UniProt P21709 26-976, limits assumed)
T1 construct: whole, on cells
T1 sequence (looked up): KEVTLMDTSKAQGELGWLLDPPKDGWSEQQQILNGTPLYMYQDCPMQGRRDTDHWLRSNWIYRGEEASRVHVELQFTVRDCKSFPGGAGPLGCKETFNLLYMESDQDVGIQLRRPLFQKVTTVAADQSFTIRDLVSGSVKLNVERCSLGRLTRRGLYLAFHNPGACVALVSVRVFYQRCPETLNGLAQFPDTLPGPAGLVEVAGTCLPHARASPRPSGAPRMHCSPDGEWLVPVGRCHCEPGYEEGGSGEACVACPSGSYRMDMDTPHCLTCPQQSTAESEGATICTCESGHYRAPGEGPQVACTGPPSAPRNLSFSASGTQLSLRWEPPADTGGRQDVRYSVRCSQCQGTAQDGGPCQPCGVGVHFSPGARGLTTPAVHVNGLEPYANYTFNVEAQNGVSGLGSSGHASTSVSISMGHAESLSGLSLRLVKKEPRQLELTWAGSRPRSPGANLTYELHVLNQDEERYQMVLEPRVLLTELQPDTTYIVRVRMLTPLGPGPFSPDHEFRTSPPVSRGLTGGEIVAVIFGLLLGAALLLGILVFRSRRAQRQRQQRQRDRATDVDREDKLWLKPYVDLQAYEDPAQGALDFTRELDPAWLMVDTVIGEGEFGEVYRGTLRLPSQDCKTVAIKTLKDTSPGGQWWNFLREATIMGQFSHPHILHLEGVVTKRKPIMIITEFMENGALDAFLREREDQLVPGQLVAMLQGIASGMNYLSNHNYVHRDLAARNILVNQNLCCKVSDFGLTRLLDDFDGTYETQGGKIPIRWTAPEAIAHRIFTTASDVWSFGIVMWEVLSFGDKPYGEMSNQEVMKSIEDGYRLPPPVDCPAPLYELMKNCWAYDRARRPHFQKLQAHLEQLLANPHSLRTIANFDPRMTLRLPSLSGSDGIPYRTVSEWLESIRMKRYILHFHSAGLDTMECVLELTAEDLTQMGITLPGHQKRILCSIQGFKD
Method: (§1) To detect the binding specificity of scFv, 293T cells were transformed with EphA1-A8 plasmids individually for overexpression of different EphA molecules. The cell line was freshly prepared and washed with FACS buffer (2% FBS in PBS). The cells were seeded at 1×10⁵ cells/well into a 96-well Ubottom plate and incubated with scFv for 1 h at 4° C. After the plate was washed with FACS buffer, the anti-hemagglutinin (HA) antibody was added for scFv binding detection (scFv was fused with a HA tag) and subsequently developed using an FITC-conjugated secondary antibody. Finally, the cell binding signal was analyzed using a FACS can flow cytometer.

[2] = molecular target: T2, EphA7 overexpressed on 293T cells (UniProt Q15375 28-998, limits assumed)
T2 construct: whole, on cells
T2 sequence (Q15375 28-998 limits assumed): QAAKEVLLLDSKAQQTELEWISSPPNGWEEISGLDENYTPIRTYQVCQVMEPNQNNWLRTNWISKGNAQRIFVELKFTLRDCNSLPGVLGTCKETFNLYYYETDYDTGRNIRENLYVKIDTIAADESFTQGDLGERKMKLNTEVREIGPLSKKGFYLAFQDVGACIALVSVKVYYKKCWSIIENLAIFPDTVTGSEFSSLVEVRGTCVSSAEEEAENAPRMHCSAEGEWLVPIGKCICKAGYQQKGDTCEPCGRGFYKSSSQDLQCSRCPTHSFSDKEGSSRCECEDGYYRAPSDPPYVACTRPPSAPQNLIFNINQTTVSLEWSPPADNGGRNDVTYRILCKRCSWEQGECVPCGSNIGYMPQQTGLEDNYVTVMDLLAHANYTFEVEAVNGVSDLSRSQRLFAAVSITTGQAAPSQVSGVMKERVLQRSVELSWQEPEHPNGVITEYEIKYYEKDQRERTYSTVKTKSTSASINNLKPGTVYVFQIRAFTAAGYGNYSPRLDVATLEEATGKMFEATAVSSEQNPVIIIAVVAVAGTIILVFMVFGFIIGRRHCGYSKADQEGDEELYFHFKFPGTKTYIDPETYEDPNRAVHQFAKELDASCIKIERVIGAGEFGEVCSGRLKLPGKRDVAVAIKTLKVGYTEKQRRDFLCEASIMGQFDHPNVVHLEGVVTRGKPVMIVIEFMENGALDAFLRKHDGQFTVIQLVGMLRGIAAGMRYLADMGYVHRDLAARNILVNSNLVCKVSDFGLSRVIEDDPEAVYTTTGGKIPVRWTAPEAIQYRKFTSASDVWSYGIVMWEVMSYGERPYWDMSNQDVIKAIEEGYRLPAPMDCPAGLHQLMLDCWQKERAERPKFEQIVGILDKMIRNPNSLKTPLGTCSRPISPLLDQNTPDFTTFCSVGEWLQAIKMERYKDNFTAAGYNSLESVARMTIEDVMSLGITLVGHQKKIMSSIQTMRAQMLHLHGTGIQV
Method: as §1

[3] = molecular target: T3, EphA8 overexpressed on 293T cells (UniProt P29322 28-1005, limits assumed)
T3 construct: whole, on cells
T3 sequence (looked up): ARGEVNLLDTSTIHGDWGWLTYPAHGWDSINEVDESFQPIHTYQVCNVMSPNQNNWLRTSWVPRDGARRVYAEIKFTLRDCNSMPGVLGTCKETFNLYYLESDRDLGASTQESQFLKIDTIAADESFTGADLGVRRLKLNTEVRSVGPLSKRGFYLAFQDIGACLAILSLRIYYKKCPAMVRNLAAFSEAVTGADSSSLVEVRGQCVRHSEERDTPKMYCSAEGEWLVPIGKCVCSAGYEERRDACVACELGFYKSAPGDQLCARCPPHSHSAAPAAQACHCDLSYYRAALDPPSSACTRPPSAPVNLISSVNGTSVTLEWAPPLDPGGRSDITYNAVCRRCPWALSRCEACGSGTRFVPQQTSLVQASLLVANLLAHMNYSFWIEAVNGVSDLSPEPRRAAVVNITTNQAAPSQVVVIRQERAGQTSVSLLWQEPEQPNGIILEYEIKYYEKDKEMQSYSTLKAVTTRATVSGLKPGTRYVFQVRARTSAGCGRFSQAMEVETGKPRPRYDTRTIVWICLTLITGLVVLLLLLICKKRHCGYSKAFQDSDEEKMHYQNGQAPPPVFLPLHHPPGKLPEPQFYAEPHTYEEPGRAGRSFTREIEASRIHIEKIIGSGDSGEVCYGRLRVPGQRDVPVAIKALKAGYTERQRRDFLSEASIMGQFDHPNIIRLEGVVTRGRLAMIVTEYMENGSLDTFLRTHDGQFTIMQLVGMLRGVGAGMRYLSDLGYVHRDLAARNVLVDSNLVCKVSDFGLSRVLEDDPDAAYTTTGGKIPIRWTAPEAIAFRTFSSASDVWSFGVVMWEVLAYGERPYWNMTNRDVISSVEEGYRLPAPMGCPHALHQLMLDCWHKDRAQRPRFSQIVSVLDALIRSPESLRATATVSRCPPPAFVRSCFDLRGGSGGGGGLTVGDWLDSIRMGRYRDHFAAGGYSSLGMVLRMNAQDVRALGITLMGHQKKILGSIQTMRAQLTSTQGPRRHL
Method: as §1

[4] = molecular target: T4, EphA4 overexpressed on 293T cells (UniProt P54764 20-986, limits assumed)
T4 construct: whole, on cells
T4 sequence (P54764 20-986 limits assumed): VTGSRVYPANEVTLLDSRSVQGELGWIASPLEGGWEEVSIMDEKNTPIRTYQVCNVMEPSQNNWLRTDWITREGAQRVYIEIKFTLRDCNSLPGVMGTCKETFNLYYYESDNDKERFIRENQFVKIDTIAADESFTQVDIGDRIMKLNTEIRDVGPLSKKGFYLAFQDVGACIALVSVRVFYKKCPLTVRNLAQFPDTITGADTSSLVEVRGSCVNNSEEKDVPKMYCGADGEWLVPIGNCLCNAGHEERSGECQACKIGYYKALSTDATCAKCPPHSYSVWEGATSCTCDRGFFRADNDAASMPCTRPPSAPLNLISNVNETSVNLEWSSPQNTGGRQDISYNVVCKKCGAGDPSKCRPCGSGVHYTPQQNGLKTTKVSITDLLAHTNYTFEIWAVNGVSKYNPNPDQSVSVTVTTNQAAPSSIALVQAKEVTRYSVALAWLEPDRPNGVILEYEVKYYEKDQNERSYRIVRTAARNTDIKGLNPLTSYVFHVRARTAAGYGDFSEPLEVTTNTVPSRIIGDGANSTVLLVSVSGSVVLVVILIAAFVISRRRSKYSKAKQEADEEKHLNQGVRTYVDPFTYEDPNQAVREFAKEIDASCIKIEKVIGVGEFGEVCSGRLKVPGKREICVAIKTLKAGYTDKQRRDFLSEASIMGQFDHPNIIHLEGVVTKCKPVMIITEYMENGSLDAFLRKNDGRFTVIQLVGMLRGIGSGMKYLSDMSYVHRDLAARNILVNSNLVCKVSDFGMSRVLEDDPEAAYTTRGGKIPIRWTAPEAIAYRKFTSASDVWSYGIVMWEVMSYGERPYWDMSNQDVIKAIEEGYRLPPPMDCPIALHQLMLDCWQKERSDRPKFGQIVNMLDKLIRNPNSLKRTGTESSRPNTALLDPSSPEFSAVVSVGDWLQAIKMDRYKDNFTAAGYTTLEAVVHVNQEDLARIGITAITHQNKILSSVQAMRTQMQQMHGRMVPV
Method: as §1

[5] = molecular target: T5, EphA5 overexpressed on 293T cells (UniProt P54756 25-1037, limits assumed)
T5 construct: whole, on cells
T5 sequence (P54756 25-1037 limits assumed): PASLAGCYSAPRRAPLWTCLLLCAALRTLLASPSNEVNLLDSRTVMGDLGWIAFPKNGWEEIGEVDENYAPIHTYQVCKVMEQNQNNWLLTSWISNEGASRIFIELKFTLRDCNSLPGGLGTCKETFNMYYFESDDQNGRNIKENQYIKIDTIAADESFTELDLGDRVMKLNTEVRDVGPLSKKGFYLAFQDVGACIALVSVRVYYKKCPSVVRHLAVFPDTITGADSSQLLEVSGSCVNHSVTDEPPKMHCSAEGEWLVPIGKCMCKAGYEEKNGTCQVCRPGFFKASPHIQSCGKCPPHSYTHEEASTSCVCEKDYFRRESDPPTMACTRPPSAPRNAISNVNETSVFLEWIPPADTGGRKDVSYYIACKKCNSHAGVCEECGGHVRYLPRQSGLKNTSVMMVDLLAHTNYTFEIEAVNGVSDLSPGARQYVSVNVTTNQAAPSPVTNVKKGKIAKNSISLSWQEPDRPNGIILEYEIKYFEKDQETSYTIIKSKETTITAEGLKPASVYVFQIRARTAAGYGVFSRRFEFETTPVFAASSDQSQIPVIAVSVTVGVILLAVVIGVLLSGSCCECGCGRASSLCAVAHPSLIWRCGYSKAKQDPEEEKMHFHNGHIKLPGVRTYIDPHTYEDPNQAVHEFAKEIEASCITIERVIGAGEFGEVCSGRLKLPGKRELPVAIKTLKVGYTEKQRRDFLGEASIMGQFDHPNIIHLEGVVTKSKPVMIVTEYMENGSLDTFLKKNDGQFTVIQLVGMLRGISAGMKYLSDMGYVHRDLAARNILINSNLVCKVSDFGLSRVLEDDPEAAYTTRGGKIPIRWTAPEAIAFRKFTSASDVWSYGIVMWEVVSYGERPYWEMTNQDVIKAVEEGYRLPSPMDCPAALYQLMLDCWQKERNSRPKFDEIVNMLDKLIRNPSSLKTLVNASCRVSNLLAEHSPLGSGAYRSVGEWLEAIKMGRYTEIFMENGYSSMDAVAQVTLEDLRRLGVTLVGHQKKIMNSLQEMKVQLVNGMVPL
Method: as §1

Measured: binding result

B1: Humanized scFv hSD5 (scFv)
scFv: LTQPPSVSVSPGQTVRITCSGSSGSYGWYQQKSPGQAPVTLIYDNDKRPSGIPERFSGSSSGSTSTLTISGVQAEDEADYYCGSADSSTYVGMFGGGTKLTVLGQSSRSSQVQLVESGGGLVQPGGSLRLSCAASGFTFSDYGMGWVRQAPGKGLEWVAGISAAGSFTPYGAAVKGRFTISRDNSKNTVYLQMNSLRAEDTAVYYCARIPSGYRAGEIYTWGQGTLVTVSS
notes: also called hSD5 scFv; Humanized scFv hSDS
no binding: all assays above

— patent publication US20250340655A1, “EPHA2-TARGETING ANTIBODIES AND THEIR APPLICATIONS IN CANCER TREATMENT” (TAIPEI MEDICAL UNIVERSITY, priority 2022, published 2025)
